Positions count from the first letter of the chain named.
T1: human EphA6 extracellular region-SEAP-His protein (human, UniProt Q9UF33 23-550)
T1 construct: extracellular domain; also called hEphA6-SEAP-His
T1 sequence (looked up): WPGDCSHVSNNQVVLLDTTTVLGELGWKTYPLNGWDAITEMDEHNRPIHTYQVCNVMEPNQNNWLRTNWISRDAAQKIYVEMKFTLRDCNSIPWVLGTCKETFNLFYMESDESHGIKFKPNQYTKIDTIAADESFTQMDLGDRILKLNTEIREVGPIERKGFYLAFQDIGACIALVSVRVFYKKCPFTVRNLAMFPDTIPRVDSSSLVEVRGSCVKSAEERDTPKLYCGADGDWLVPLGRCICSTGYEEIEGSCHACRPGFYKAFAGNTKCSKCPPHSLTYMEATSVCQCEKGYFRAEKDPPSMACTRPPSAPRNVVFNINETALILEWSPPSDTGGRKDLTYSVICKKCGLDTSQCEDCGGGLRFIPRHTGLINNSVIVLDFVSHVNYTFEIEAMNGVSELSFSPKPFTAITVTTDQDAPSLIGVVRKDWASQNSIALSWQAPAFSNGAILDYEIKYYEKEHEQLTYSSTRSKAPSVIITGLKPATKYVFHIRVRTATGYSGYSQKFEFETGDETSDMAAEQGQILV

T2: human EphA10 extracellular region-SEAP-His protein (human, UniProt Q5JZY3 34-565)
T2 construct: extracellular domain; also called hEphA10-SEAP-His
T2 sequence (looked up): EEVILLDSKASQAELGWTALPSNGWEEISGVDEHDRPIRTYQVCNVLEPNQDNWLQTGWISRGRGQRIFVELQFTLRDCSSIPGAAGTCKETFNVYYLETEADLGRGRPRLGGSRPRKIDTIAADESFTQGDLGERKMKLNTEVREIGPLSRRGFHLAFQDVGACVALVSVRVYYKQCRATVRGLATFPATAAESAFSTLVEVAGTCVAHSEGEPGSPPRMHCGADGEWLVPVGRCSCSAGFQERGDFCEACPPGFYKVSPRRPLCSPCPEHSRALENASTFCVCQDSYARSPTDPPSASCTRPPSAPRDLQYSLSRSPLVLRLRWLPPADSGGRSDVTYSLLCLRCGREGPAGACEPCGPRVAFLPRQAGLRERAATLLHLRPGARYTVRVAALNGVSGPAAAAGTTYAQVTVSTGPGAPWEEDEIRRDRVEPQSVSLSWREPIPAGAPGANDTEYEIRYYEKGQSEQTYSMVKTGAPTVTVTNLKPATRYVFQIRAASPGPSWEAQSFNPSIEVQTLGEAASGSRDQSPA

T3: human EphB2 extracellular region-SEAP-His protein (human, UniProt P29323 19-543)
T3 construct: extracellular domain; also called hEphB2-SEAP-His
T3 sequence (looked up): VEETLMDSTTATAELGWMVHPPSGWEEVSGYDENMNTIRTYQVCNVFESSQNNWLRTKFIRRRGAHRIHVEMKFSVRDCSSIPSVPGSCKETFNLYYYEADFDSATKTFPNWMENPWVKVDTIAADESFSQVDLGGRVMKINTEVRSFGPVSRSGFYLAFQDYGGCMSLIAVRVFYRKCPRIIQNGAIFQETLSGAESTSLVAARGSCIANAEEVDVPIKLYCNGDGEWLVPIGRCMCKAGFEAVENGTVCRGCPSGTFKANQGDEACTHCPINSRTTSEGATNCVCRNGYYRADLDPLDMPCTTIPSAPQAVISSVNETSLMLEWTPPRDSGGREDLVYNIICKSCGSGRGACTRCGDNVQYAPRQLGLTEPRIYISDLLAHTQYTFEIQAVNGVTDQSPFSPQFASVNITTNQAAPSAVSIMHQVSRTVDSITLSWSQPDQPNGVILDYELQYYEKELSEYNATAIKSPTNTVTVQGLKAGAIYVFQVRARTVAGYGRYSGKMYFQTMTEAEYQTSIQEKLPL

T4: human EphB6 extracellular region-SEAP-His protein (human, UniProt O15197 32-594)
T4 construct: extracellular domain; also called hEphB6-SEAP-His
T4 sequence (looked up): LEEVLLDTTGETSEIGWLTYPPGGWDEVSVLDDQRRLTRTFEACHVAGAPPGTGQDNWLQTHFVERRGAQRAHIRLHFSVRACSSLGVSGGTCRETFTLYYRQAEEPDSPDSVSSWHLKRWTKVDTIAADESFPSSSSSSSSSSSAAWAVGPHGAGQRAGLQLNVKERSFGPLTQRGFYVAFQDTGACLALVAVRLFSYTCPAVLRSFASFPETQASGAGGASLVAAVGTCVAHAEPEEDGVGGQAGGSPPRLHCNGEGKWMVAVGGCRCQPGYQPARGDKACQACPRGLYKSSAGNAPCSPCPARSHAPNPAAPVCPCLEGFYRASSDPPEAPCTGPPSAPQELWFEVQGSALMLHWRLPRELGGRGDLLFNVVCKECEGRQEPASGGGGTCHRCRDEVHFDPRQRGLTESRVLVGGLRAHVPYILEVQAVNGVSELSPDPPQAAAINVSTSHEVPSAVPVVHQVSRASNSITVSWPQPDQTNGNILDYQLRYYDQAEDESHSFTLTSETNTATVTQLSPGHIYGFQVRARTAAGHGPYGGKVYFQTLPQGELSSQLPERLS

B1: humanized antibody No. 153 (antibody, human IgG2)
heavy: QVQLVQSGSELKKPGASVKVSCKASGYTFTDYSMHWVRQAPGQGLKWMGWINTETGEPTYAQGFTGRFVFSLDTSVSTAYLQISSLKAEDTAVYYCARIPLYYYGSRYWYFDVWGQGTTVTVSSASTKGPSVFPLAPSSRSTSESTAALGCLVKDYFPEPVTVSWNSGALTSGVHTFPAVLQSSGLYSLSSVVTVPSSNFGTQTYTCNVDHKPSNTKVDKTVERKSCVECPPCPAPPAAAPSVFLFPPKPKDTLMISRTPEVTCVVVDVSHEDPEVQFNWYVDGVEVHNAKTKPREEQFNSTFRVVSVLTVVHQDWLNGKEYKCKVSNKGLPAPIEKTISKTKGQPREPQVYTLPPSREEMTKNQVSLTCLVKGFYPSDIAVEWESNGQPENNYKTTPPMLDSDGSFFLYSKLTVDKSRWQQGNVFSCSVMHEALHNHYTQKSLSLSPG
light: DIQMTQSPSSLSASVGDRVTITCRASENIYRNLAWYQQKPGKAPKLLLYAATNLADGVPSRFSGSGSGTDYTLTISSLQSEDFATYYCQHFWGTPWTFGQGTKVEIKRTVAAPSVFIFPPSDEQLKSGTASVVCLLNNFYPREAKVQWKVDNALQSGNSQESVTEQDSKDSTYSLSSTLTLSKADYEKHKVYACEVTHQGLSSPVTKSFNRGEC
notes: human Ig kappa; also called L1-5/HA2
B2: humanized antibody No. 134 (antibody, human IgG2)
heavy: B1 heavy
light: EIVMTQSPATLSVSPGERATLSCRASENIYRNLAWYQQKPGQSPRLLIYAATNLADGIPARFSGSGSGTEYTLTISSLQSEDFAVYYCQHFWGTPWTFGQGTKVEIKRTVAAPSVFIFPPSDEQLKSGTASVVCLLNNFYPREAKVQWKVDNALQSGNSQESVTEQDSKDSTYSLSSTLTLSKADYEKHKVYACEVTHQGLSSPVTKSFNRGEC
notes: human Ig kappa; also called L2-4/HA2
B3: humanized antibody No. 156 (antibody, human IgG2)
heavy: B1 heavy with V2I
light: B1 light with K45Q, S80P
notes: human Ig kappa; also called L1-6/HA4
B4: humanized antibody No. 154 (antibody, human IgG2)
heavy: B1 heavy with K46E, Q62D, G63D, T65K
light: B1 light
notes: human Ig kappa; also called L1-5/HK1
B5: humanized antibody No. 132 (antibody, human IgG2)
heavy: B1 heavy with V2I
light: B2 light
notes: human Ig kappa; also called L2-4/HA4
B6: humanized antibody No. 160 (antibody, human IgG2)
heavy: B1 heavy with V2I, Q62D, G63D, T65K
light: B1 light with K45Q, S80P
notes: human Ig kappa; also called L1-6/HK4
B7: humanized antibody No. 157 (antibody, human IgG2)
heavy: B1 heavy with K46E
light: B1 light with K45Q, S80P
notes: human Ig kappa; also called L1-6/HA1
B8: humanized antibody No. 133 (antibody, human IgG2)
heavy: B1 heavy with K46E
light: B2 light
notes: human Ig kappa; also called L2-4/HA1
B9: humanized antibody No. 158 (antibody, human IgG2)
heavy: B1 heavy
light: B1 light with K45Q, S80P
notes: human Ig kappa; also called L1-6/HA2
B10: humanized antibody No. 159 (antibody, human IgG2)
heavy: B1 heavy with Q62D, G63D, T65K
light: B1 light with K45Q, S80P
notes: human Ig kappa; also called L1-6/HK2
B11: humanized antibody No. 155 (antibody, human IgG2)
heavy: B1 heavy with V2I, Q62D, G63D, T65K
light: B1 light
notes: human Ig kappa; also called L1-5/HK4

What was measured:
Assay in all cases: ELISA
[1] = target: SEAP-His (UniProt P05187 23-511)
Sequence of SEAP-His (P05187 23-511): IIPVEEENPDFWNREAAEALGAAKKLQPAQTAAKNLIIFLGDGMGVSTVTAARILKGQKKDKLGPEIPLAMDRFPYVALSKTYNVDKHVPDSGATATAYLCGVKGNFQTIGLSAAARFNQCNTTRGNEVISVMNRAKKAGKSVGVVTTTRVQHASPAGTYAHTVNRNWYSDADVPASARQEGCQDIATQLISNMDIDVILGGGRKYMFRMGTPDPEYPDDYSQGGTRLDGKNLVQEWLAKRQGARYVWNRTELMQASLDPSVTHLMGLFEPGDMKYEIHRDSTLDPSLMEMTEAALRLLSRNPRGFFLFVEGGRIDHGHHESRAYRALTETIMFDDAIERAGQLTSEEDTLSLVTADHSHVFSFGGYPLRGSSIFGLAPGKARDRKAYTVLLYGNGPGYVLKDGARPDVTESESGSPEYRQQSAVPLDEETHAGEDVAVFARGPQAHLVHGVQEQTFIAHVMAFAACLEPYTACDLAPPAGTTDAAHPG

[2] = target: T5, human EphA2 extracellular region-SEAP-His protein (human, UniProt P29317 24-537)
T5 construct: extracellular domain; also called hEphA2-SEAP-His
T5 sequence (P29317 24-537): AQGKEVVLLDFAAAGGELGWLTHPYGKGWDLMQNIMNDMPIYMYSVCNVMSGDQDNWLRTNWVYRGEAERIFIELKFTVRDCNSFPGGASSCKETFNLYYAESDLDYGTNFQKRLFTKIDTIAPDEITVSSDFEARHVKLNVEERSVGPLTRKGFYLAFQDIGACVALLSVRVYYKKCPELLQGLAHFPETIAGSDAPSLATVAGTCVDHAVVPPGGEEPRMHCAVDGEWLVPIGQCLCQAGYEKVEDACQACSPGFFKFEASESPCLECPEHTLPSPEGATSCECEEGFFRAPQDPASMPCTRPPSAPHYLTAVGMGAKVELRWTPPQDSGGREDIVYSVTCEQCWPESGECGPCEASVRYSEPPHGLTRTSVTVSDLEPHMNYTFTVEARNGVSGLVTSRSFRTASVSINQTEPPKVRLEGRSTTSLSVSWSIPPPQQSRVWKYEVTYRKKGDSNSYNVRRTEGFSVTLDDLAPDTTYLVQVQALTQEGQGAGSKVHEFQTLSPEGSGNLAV

[3] = target: T1, human EphA6 extracellular …
[4] = target: T2, human EphA10 extracellular …
[5] = target: T3, human EphB2 extracellular …
[6] = target: T4, human EphB6 extracellular …

| Binder | A450 as % of hEphA4-SEAP-His [1] [%] | A450 as % of hEphA4-SEAP-His [2] [%] | A450 as % of hEphA4-SEAP-His [3] [%] | A450 as % of hEphA4-SEAP-His [4] [%] | A450 as % of hEphA4-SEAP-His [5] [%] | A450 as % of hEphA4-SEAP-His [6] [%] |
| --- | --- | --- | --- | --- | --- | --- |
| B1 | 5.9 | 6 | 8.7 | 6 | 5.9 | 6.2 |
| B2 | 5.1 | 5 | 9.6 | 5 | 5.1 | 5.2 |
| B3 | 5.4 | 5.5 | 8.9 | 5.3 | 5.5 | 5.7 |
| B4 | 6.3 | 6.2 | 8.4 | 5.9 | 6.2 | 6.4 |
| B5 | 4.9 | 4.8 | 9.7 | 4.7 | 4.7 | 4.7 |
| B6 | 6.3 | 6.1 | 8.7 | 5 | 6.2 | 6.2 |
| B7 | 6.1 | 6.3 | 9 | 6.1 | 6.2 | 6.3 |
| B8 | 4.7 | 4.7 | 8.8 | 4.7 | 4.6 | 4.8 |
| B9 | 6.3 | 6.7 | 10 | 6.4 | 6.3 | 6.3 |
| B10 | 5.3 | 5.4 | 7.6 | 5.3 | 5.4 | 5.5 |
| B11 | 5.8 | 5.5 | 7.2 | 5.4 | 5.5 | 5.6 |

From patent US20190077860A1 (EISAI R AND D MANAGEMENT, published 2019)
